Measurements published in US20240043504A1 (published 2024).

Target: SARS-COV-2 RBD extracellular domain expressed with a C-terminal mouse IgG2a (SARS-COV-2 RBD-mFc) (SARS-CoV-2)
Experiment: SPR, captured mAb, RBD-mFc in solution, 37 C

B1: mAb10934 (antibody, V domains shown)
VH: not shown
VL: DIQMTQSPSSLSASVGDRVTITCQASQDIWNYINWYQQKPGKAPKLLIYDASNLKTGVPSRFSGSGSGTDFTFTISSLQPEDIATYYCQQHDDLPPTFGQGTKVEIKR
Which results are given for B1?
Kd: 0.0216 nM; t½: 0.657 h

B2: mAb10935 (antibody, V domains shown)
VH: EVQLVESGGGLVQPGGSLRLSCAASGFTVSSNYMSWVRQAPGKGLEWVSLIYSGGSTYYADSVKGRFTISRHNSKNTLYLQMNSLRSEDTAVYYCARVPLGDYYYGMDVWGQGTTVTVSS
VL: DIQMTQSPSSLSASVGDRVTITCQASQDINKYLNWYQQKPGKAPKLLIYDASNLETGVPSRFSGSGSGTDFTFTISSLQPEDIATYYCQQSDNLPLTFGGGTKVEIKR
How did the Kd turn out when B2 was run?
Its Kd is 0.0869 nM.

What about the koff of the same binder?
Its koff is 0.000494 s⁻¹.

And the kon?
The kon was 5.68e+06 M⁻¹ s⁻¹.

What about the “t½” value of the same binder?
The value was 0.39 h.

B3: mAb10955 (antibody, V domains shown)
VH: EVQLVESGGGLVQPGGSLRVSCAASGFTVSRNYMSWVRQAPGKGLEWVSVIYSGGSTFYADSVKGRFTISRDNSKNTLYLQMNSLRAEDTAIYYCARYIPRFDPWGQGTLVTVSS
VL: DIQMTQSPSSLSASVGDRVTITCQASQDISNYLNWFQQKPGRAPKLLIYDASNLETGVPSRFSGSGSGTDFTFTISSLQPEDIATYYCQQYDNLPITFGQGTRLEIKR
What does the source list for B3?
Kd: 0.202 nM; t½: 0.497 h

B4: mAb10967 (antibody, V domains shown)
VH: EVQLVESGGGLVQPGGSLRLSCAASGFTVSSNYMSWVRQAPGKGLEWVSVIYPGGSTFYADSVKGRFTISRDNSKNTLYLQMNSLRAEDTAVYYCARDQRDFAWGQGTLVTVSS
VL: DIQMTQSPSSLSASVGDRVTITCQASQDISNYLNWYQQKPGKAPKLLIYDASNLETGVPSRFSGSGSGTDFTFTISGLQPEDIATYYCQQYDNLPPTFGQGTRLEIKR
How did the Kd turn out when B4 was run?
Its Kd is 0.0229 nM.

What about the “t½” value of the same binder?
The value was 5.78 h.

B5: mAb10954 (antibody, V domains shown)
VH: EVQLVESGGGLVQPGGSLRLSCAASGITVSSNYMSWVRQAPGKGLEWVSLIYSGGSTYYADSVKGRFTISRDNSKNTLYLQMNSLRVEDTAVYYCARDHGMAAAGYNYWGQGTLVTVSS
VL: DIQMTQSPSSLSASVGDRVTITCQASQDINKYLNWYQQKPGKAPKLLIYDASNLETGVPSRFSGSGSGTDFTFTINSLQPEDFATYFCQQYDNLPPAFGQGTKVEIKR
Which Kd does the source give for B5 here?
The Kd was 0.0369 nM.

B6: mAb10938 (antibody, V domains shown)
VH: EVQLVESGGGLVQPGGSLRLSCAVSGFTVSSNYMSWVRQAPGKGLEWVSLIYSGGSTFYADSVKGRFTISRHNSKNTLYLQMNSLRAEDTAVYYCAREGGYSYDYNYWGQGTLVTVSS
VL: DIQMTQSPSSLSASVGDRVTITCQASQDIRNYLNWYQQKPGKAPKLLIYDASNLETGVPSRFSGIGSGTDFTFTISSLQPEDIATYYCQQYDNLPITFGQGTRLEIKR
How did the Kd turn out when B6 was run?
Its Kd is 0.173 nM.

And the “t½” value?
The value was 2.94 h.

B7: mAb10932 (antibody, V domains shown)
VH: EVQLVESGGGLVQSGGSLRLSCAASGLTVSSNYMSWVRQAPGKGLEWVSVIYSGGSTFYSDSVKGRFTISRHNSKNTLYLQMNSLRAEDTAVYYCARARGDAFDIWGQGTMVTVSS
VL: not shown
Which results are given for B7?
Kd: 0.153 nM; koff: 6.86e-05 s⁻¹; kon: 448000 M⁻¹ s⁻¹; t½: 2.81 h

B8: mAb10965 (antibody, V domains shown)
VH: EVQLVESGGGLIQPGGSLRLSCAASVFTVSYNYMSWVRQAPGKGLEWVSVIYSGGSTYYADSVKGRFTISRDNSKNTLYLQMNSLRAEDTAVYYCARALPGWGGSFEYFDYWGQGTLVTVSS
VL: not shown
Which Kd does the source give for B8 here?
Its Kd is 0.237 nM.

What about the “t½” value of the same binder?
Its value is 0.57 h.

B9: mAb10964 (antibody, V domains shown)
VH: QVQLQESGPGLVKPSETLSLTCTVSGGSINNYYWIWIRQPPGKGLEWIGYIYHSGSTNYNPSLKSRVTISVDTSKNQFSLKVSSVTAADTAVYYCANMVRGVYEDDYWGQGTLVTVSS
VL: DIQMTQSPSSLSASVGDRVTITCRASQSISNYLNWYQQKPGKAPKLLIFAASSLRSGVPSRFSGSGSGTDFTLTISSLHPEDFATYYCQQNYNTPLTFGPGTKVDIKR
With B9 as the binder, how does the “t½” value read?
Its value is 1.53 h.

B10: mAb10936 (antibody, V domains shown)
VH: QVQLVESGGGVVQPGRSLRLSCAASGFTFRNYGMHWVRQAPGKGLEWVSVIWYDGSNRYYADSVKGRFTISRDTSKNTLYLQMNSLRAEDTAVYYCARDPPITGTTGGDAFDIWGQGTMVTVSS
VL: not shown
How did the Kd turn out when B10 was run?
Its Kd is 0.0177 nM.

And the koff?
The koff was 6.75e-05 s⁻¹.

What about the kon of the same binder?
Its kon is 3.81e+06 M⁻¹ s⁻¹.

And the “t½” value?
Its value is 2.85 h.

B11: mAb10969 (antibody, V domains shown)
VH: QVQLVESGGGVVQPGRSLRLSCAASGFTFSSYAMHWVRQAPGKGLEWVAVISYDGSNKYYADSVKGRFTISRDNSKNTLYLQMNSLRAEDTAVYYCARDGRTITMVRGVIDDAFDIWGQGTMVTVSS
VL: not shown
For B11, which Kd is on record?
The Kd was 0.174 nM.

And the “t½” value?
The value was 1.36 h.

B12: mAb10971 (antibody, V domains shown)
VH: EVQLVESGGGLIQPGGSLRLSCAASGVTVSSNYMSWVRQAPGKGLEWVSVIYSGGSTFYSDSVKGRFSISRDNSKNTLYLQMNSLRAEDTAVYYCARDLYYYGMDVWGQGTTVTVSS
VL: DIQLTQSPSFLSASVGDRVTITCRASQGISTYLAWYQQKPGKAPKLLIYAASTLQSGVPSRFSGSGSGTEFTLTISSLQPEDFATYYCQQLDSYPGLTFGGGTKVEIKR
Which Kd does the source give for B12 here?
The Kd was 0.0397 nM.

And the koff?
Its koff is 9.41e-05 s⁻¹.

And the kon?
The kon was 2.37e+06 M⁻¹ s⁻¹.

And the “t½” value?
Its value is 2.04 h.

B13: mAb10982 (antibody, V domains shown)
VH: EVQLVESGGGLVQPGGSLRLSCAASGLTVSSNYMSWVRQAPGKGLEWVSVIYSGGTTYYADSVKGRFTISRHNSKNTLSLQMNSLRAEDTAVYYCARGEGANYYGMDVWGQGTTVTVSS
VL: QSVLTQPPSVSGAPGQRVTISCTGSSSNIGTGYDVHWYQQLPGTAPKLLIYGNSNRPSGVPDRFSGSKSGTSASLAITGLQAEDEADYYCQSYDSSLSGYVVFGGGTKLTVLG
Which Kd does the source give for B13 here?
The Kd was 0.21 nM.

And the koff?
Its koff is 0.000258 s⁻¹.

What about the kon of the same binder?
The kon was 1.23e+06 M⁻¹ s⁻¹.

And the “t½” value?
The value was 0.747 h.

B14: mAb10985 (antibody, V domains shown)
VH: EVQLVESGGGLVQPGRSLRLSCAASGFTFDDYAMHWVRQAPGKGLEWVSGISWNRGSIGYADSVKGRFTISRDNAKNSLYLQMSSLRAEDTALYYCAKDGERWDSVVVPSARNGMDVWGQGTTVTVSS
VL: QSVLTQPPSVSGAPGQRVTISCTGSSSNIGAGYDVHWYQQLPGTAPKLLIYGNSNRPSGVPDRFSGSKSGTSASLAITGLQAEDEADYYCQSYDSSLSGSYVFGTGTKVTVLG
With B14 as the binder, how does the Kd read?
The Kd was 0.0401 nM.

What about the “t½” value of the same binder?
Its value is 0.513 h.

B15: mAb10930 (antibody, V domains shown)
VH: EVQLVESGGGLVQPGRSLRLSCAASGFTFDDYAMYWVRQAPGKGLEWVSGISWNSGSIGYADSVKGRFTISRDNAKNSLYLQMNSLRAADTALYYCAKDKDWNSRGYYYYGMDVWGQGTTVTVSS
VL: not shown
Which Kd does the source give for B15 here?
The Kd was 0.399 nM.

And the koff?
The koff was 0.000597 s⁻¹.

What about the kon of the same binder?
Its kon is 1.49e+06 M⁻¹ s⁻¹.

What about the “t½” value of the same binder?
Its value is 0.322 h.

B16: mAb10937 (antibody, V domains shown)
VH: QITLKESGPTLVKPTQTLTLTCTFSGFSLSTNVVGVGWIRQPPGKALEWLALIYWNDDKRYSPSLKSRLTITKDTSKNQVVLTMTNMDPVDTATYYCAHGPTGDYFDYWGQGTLVTVSS
VL: not shown
B16 was tested. Which Kd did it give?
Its Kd is 0.0129 nM.

And the koff?
Its koff is 5.74e-05 s⁻¹.

What about the kon of the same binder?
Its kon is 4.47e+06 M⁻¹ s⁻¹.

And the “t½” value?
The value was 3.35 h.

B17: mAb10966 (antibody, V domains shown)
VH: EVQLVESGGGLVQPGGSLRLSCAASGLTVSSNYMSWVRQAPGKGLEWVSVIYSGGSTFYADSVKGRFTISRDNSKNTLYLQMNSLRPEDTAVYYCAREGRIAATGYGMDVWGQGTTVTVSS
VL: not shown
With B17 as the binder, how does the Kd read?
The Kd was 0.0405 nM.

And the “t½” value?
The value was 1.94 h.

B18: mAb10984 (antibody, V domains shown)
VH: EVQLVESGGGLVQPGGSLRLSCAASGLTVNRNYMSWVRQAPGKGLEWVSLIYSGGSTYYADSVKGRFTISRDNSKNTLYLQMNSLRLEDTAVYYCARGELGIPYGMDVWGQGTTVTVSS
VL: QSVLTQPPSVSAAPGQKVTISCSGSSSNIGNNYVSWYQQLPGTAPKLLIYDNNKRPSGIPDRFSGSKSGTSATLGITGLQTGDEADYYCGTWDSSLSAGVFGGGTKLTVLG
Which Kd does the source give for B18 here?
The Kd was 0.0404 nM.

What about the “t½” value of the same binder?
Its value is 2.3 h.

B19: mAb10923 (antibody, V domains shown)
VH: QVQLVQSGAEVKKPGASVKVSCKASGYTFINYYIHWVRQAPGQGLEWMGWINPNSGGTNYAQKFQGRVTMTRDTSISTAYMELSRLRSDDTAVYYCAIITIFGVVTWFDPWGQGTLVTVSS
VL: not shown
What does the source list for B19?
Kd: 0.0336 nM; koff: 0.000185 s⁻¹; kon: 5.53e+06 M⁻¹ s⁻¹; t½: 1.04 h

B20: mAb10939 (antibody, V domains shown)
VH: EVQLVESGGGLVQPGGSLRLSCAASGLTVSSNYMNWVRQVPGKGLEWVSVIYSGGSKFYVDSVKGRFTISRHNSKNTLYLQMNSLRPEDTAVYYCTRDAQYYGMDVWGQGTTVTVSS
VL: DIQMTQSPSSLSASVGDRVTITCRASQSISTYLHWYQQKPGEAPKLLIYAASSLQSGVPSRFSGSGSGTDFTLTISSLQPEDFATYYCQQSYSTPPEIFGQGTKLEIKR
What does the source list for B20?
Kd: 0.155 nM; koff: 0.000165 s⁻¹; kon: 1.06e+06 M⁻¹ s⁻¹; t½: 1.17 h

B21: mAb10956 (antibody, V domains shown)
VH: EVQLVESGGGLVQPGGSLRLSCAASGLTVSSNYMSWVRQAPGKGLEWVSVIYSGGSTFYADSVKGRFTISRDNSKNTLYLQMNSLRAEDTAVYYCARDLIKYGMDVWGQGTTVTVSS
VL: not shown
B21 was tested. Which Kd did it give?
Its Kd is 0.158 nM.

What about the “t½” value of the same binder?
The value was 0.563 h.

B22: mAb10921 (antibody, V domains shown)
VH: EVQLVESGGGLVQPGGSLRLSCAASGITVSSNYMSWVRQAPGKGLEWVSVIYSGGSTFYADSVKGRFTISRHNSKNTLYLQMNSLRAEDTAVYYCARERNFDAFDIWGQGTMVTVSS
VL: DIQMTQSPSSVSASVGDRVTITCRASQGISSWLAWYQQKPGKAPKLLIYAASSLQSGVPSRFSGSGSGTDFTLTISSLQPEDFATYYCQQANSFPLFTFGPGTKVDIKR
How did the Kd turn out when B22 was run?
The Kd was 0.273 nM.

And the koff?
The koff was 0.000125 s⁻¹.

And the kon?
The kon was 458000 M⁻¹ s⁻¹.

What about the “t½” value of the same binder?
The value was 1.54 h.

B23: mAb10957 (antibody, V domains shown)
VH: EVQLVESGGGLVQPGGSLRLSCAASGVTVSSNYMSWVRQAPGKGLEWVSVIYSGGSTFYADSVKGRFTISRDNSKNTLFLQMNSLRIEDTAVYYCARDLGPYGMDVWGQGTTVTVSS
VL: DIQLTQSPSFLSASVGDRVTITCRASQGISSYLAWYQQKPGKAPKLLIYAASTLQSGVPSRFSGSGSGTQFILTISSLQPEDFATYYCQQLNSYPGFTFGPGTKVDIKR
What does the source list for B23?
Kd: 0.0463 nM; t½: 2.68 h
